In publication doi:10.1101/2020.05.15.096610 (bioRxiv, 2020):
Like-named read-outs stand apart in the source and are kept apart here.

Experiments:
cryo-EM structure [1] = target: the molecule itself; assay: cryo-EM structure
cryo-EM structure [2] = target: the molecule itself; assay: cryo-EM structure; remark: listed apart in the source

B1: Vibrio alginolyticus PomB (natural protein, UniProt O06874 1-315, looked up)
chain: MDDEDNKCDCPPPGLPLWMGTFADLMSLLMCFFVLLLSFSEMDVLKFKQIAGSMKFAFGVQNQLEVKDIPKGTSIIAQEFRPGRPEPTPIDVIMQQTMDITQQTLEFHEGESDRAGGTKRDEGKLTGGQSPATSTQNNESAEADMQQQQSKEMSQEMETLMESIKKALEREIEQGAIEVENLGQQIVIRMREKGAFPEGSAFLQPKFRPLVRQIAELVKDVPGIVRVSGHTDNRPLDSELYRSNWDLSSQRAVSVAQEMEKVRGFSHQRLRVRGMADTEPLLPNDSDDNRALNRRVEISIMQGEPLYSEEVPVIQ
stoichiometry N (cryo-EM structure [1]): 2

B2: Campylobacter jejuni MotB (natural protein, UniProt Q0PBH3 1-247, looked up)
chain: MAKKHKCPECPAGEKWAVPYADFLSLLLALFIALWAISKTNPAKVEALKTEFVKIFDYTSTQTVKEESKTQEKYKGAAKEESDELKSLKQMTMTQQETIKRLQAALDQSDNQVALNLPSKVEFERGSAQIVSADIQDYLKRMAELTTYLPPQAKIEIRGYTDNSDSIIRSYELAYQRAENVLKYFIEGGANLKNISIKSYGLNNPINGNPQTLENNRVEIYFKVDTADTSTQKSVLELINKIGTKAP
stoichiometry N (cryo-EM structure [2]): 2

B3: Campylobacter jejuni MotB(Δ41-60) (natural protein, UniProt Q0PBH3 1-247, looked up)
chain: MAKKHKCPECPAGEKWAVPYADFLSLLLALFIALWAISKTTQTVKEESKTQEKYKGAAKEESDELKSLKQMTMTQQETIKRLQAALDQSDNQVALNLPSKVEFERGSAQIVSADIQDYLKRMAELTTYLPPQAKIEIRGYTDNSDSIIRSYELAYQRAENVLKYFIEGGANLKNISIKSYGLNNPINGNPQTLENNRVEIYFKVDTADTSTQKSVLELINKIGTKAP
binding result (cryo-EM structure [2]): binds

B4: Campylobacter jejuni MotB(Δ41-60, D22N) (natural protein, UniProt Q0PBH3 1-247, looked up)
chain: MAKKHKCPECPAGEKWAVPYANFLSLLLALFIALWAISKTTQTVKEESKTQEKYKGAAKEESDELKSLKQMTMTQQETIKRLQAALDQSDNQVALNLPSKVEFERGSAQIVSADIQDYLKRMAELTTYLPPQAKIEIRGYTDNSDSIIRSYELAYQRAENVLKYFIEGGANLKNISIKSYGLNNPINGNPQTLENNRVEIYFKVDTADTSTQKSVLELINKIGTKAP
binding result (cryo-EM structure [2]): binds
